Assay results published in paper PMC5107993, “Glutathione-conjugating and membrane-remodeling activity of GDAP1 relies on amphipathic C-terminal domain” (Scientific Reports, 2016).

Biological target: the molecule itself
Experiment: SEC; Superdex 200 10/300 in 20 mM Tris pH 8.0, 100 mM NaCl, 1 mM DTT, 1 mM EDTA; peak fractions re-chromatographed under identical conditions; monomer to dimer

B1: GDAP1 T318X-6xHis (domain or fragment, human, UniProt Q8TB36 1-317, looked up)
chain: MAERQEEQRGSPPLRAEGKADAEVKLILYHWTHSFSSQKVRLVIAEKALKCEEHDVSLPLSEHNEPWFMRLNSTGEVPVLIHGENIICEATQIIDYLEQTFLDERTPRLMPDKESMYYPRVQHYRELLDSLPMDAYTHGCILHPELTVDSMIPAYATTRIRSQIGNTESELKKLAEENPDLQEAYIAKQKRLKSKLLDHDNVKYLKKILDELEKVLDQVETELQRRNEETPEEGQQPWLCGESFTLADVSLAVTLHRLKFLGFARRNWGNGKRPNLETYYERVLKRKTFNKVLGHVNNILISAVLPTAFRVAKKRAP
notes: GDAP1, human (recombinant human GDAP1), truncated by a stop in place of T318 (T318X), lacks the TMD, keeps HD1; cloned into vector pFL of the MultiBac system; the methods print the name as T3188X; also called GDAP1 T3188X; not shown: His6, C-terminal, kept
stoichiometry N: 2

B2: GDAP1 T288X-6xHis (domain or fragment, human, UniProt Q8TB36 1-287, looked up)
chain: MAERQEEQRGSPPLRAEGKADAEVKLILYHWTHSFSSQKVRLVIAEKALKCEEHDVSLPLSEHNEPWFMRLNSTGEVPVLIHGENIICEATQIIDYLEQTFLDERTPRLMPDKESMYYPRVQHYRELLDSLPMDAYTHGCILHPELTVDSMIPAYATTRIRSQIGNTESELKKLAEENPDLQEAYIAKQKRLKSKLLDHDNVKYLKKILDELEKVLDQVETELQRRNEETPEEGQQPWLCGESFTLADVSLAVTLHRLKFLGFARRNWGNGKRPNLETYYERVLKRK
notes: GDAP1, human (recombinant human GDAP1), truncated by a stop in place of T288 (T288X), lacks TMD and HD1; cloned into vector pFL of the MultiBac system; not shown: His6, C-terminal, kept
stoichiometry N: 2
